In patent US20170354706A1, “HYBRID PROTEINACEOUS MOLECULE CAPABLE OF INHIBITING AT LEAST ONE ANTIBIOTIC AND PHARMACEUTICAL COMPOSITION CONTAINING IT” (priority 2014, published 2017):
Read-outs that look alike come from different tables or passages of the source.

B1: TEM36-GGGGGG-CTXM16: SEQ ID 8; fusion TEM36 and CTXM16 with flexible 6 glycine linker, 532 aa (protein)
chain: HPETLVKVKDAEDQLGARVGYIELDLNSGKILESFRPEERFPMVSTFKVLLCGAVLSRVDAGQEQLGRRIHYSQNDLVEYSPVTEKHLTDGMTVRELCSAAITMSDNTAANLLLTTIGGPKELTAFLHNMGDHVTRLDRWEPELNEAIPNDERDTTMPAAMATTLRKLLTGELLTLASRQQLIDWMEADKVAGPLLRSALPAGWFIADKSGAGERGSRGIIAALGPDGKPSRIVVIYTTGSQATMDERDRQIAEIGASLIKHWGGGGGGQTSAVQQKLAALEKSSGGRLGVALIDTADNTQVLYRGDERFPMCSTSKVMAAAAVLKQSETQKQLLNQPVEIKPADLVNYNPIAEKHVNGTMTLAELSAAALQYSDNTAMNKLIAQLGGPGGVTAFARAIGDETFRLDRTEPTLNTAIPGDPRDTTTPRAMAQTLRQLTLGHALGETQRAQLVTWLKGNTTGAASIRAGLPTSWTAGDKTGSGGYGTTNDIAVIWPQGRAPLVLVTYFTQPQQNAESRRDVLASAARIIAEGL
modifications: TEM36-GGGGGG-CTXM16
notes: fusion TEM36 and CTXM16 with flexible 6 glycine linker, 532 aa
B2: EreB: SEQ ID 5; erythromycin esterase, P05789.1, 419 aa (protein, listed as Escherichia coli)
chain: MRFEEWVKDKHIPFKLNHPDDNYDDFKPLRKIIGDTRVVALGENSHFIKEFFLLRHTLLRFFIEDLGFTTFAFEFGFAEGQIINNWIHGQGTDDEIGRFLKHFYYPEELKTTFLWLREYNKAAKEKITFLGIDIPRNGGSYLPNMEIVHDFFRTADKEALHIIDDAFNIAKKIDYFSTSQAALNLHELTDSEKCRLTSQLARVKVRLEAMAPIHIEKYGIDKYETILHYANGMIYLDYNIQAMSGFISGGGMQGDMGAKDKYMADSVLWHLKNPQSEQKVIVVAHNAHIQKTPILYDGFLSCLPMGQRLKNAIGDDYMSLGITSYSGHTAALYPEVDTKYGFRVDNFQLQEPNEGSVEKAISGCGVTNSFVFFRNIPEDLQSIPNMIRFDSIYMKAELEKAFDGIFQIEKSSVSEVVYE
B3: TEM-36: SEQ ID 1; clavulanic acid-resistant class A β-lactamase (IR-TEM, aminopenicillinase), 263 aa; constituent enzyme (protein, listed as Escherichia coli)
chain: HPETLVKVKDAEDQLGARVGYIELDLNSGKILESFRPEERFPMVSTFKVLLCGAVLSRVDAGQEQLGRRIHYSQNDLVEYSPVTEKHLTDGMTVRELCSAAITMSDNTAANLLLTTIGGPKELTAFLHNMGDHVTRLDRWEPELNEAIPNDERDTTMPAAMATTLRKLLTGELLTLASRQQLIDWMEADKVAGPLLRSALPAGWFIADKSGAGERGSRGIIAALGPDGKPSRIVVIYTTGSQATMDERDRQIAEIGASLIKHW
B4: CTX-M16: SEQ ID 2; class A β-lactamase (cefotaximase), Genbank AAK32961, 263 aa; constituent enzyme (protein, listed as Escherichia coli)
chain: QTSAVQQKLAALEKSSGGRLGVALIDTADNTQVLYRGDERFPMCSTSKVMAAAAVLKQSETQKQLLNQPVEIKPADLVNYNPIAEKHVNGTMTLAELSAAALQYSDNTAMNKLIAQLGGPGGVTAFARAIGDETFRLDRTEPTLNTAIPGDPRDTTTPRAMAQTLRQLTLGHALGETQRAQLVTWLKGNTTGAASIRAGLPTSWTAGDKTGSGGYGTTNDIAVIWPQGRAPLVLVTYFTQPQQNAESRRDVLASAARIIAEGL

Legend:
[1] = cited from earlier work
E. coli BL21(DE3)pLysS [2] = assay: MICs of beta-lactams on LB-agar for E. coli expression strains (Example 4); type: cell-based, Escherichia coli; settings: Table 10; for MIC of the antibiotic for the empty strain BL21(DE3)pLysS: no recombinant protein; for MIC of Amoxicillin for E. coli strain expressing the protein / MIC of Augmentin for E. coli strain expressing the protein / MIC of Rocephine for E. coli strain expressing the protein: BL21(DE3)pLysS + protein, IPTG induced, LB-agar, 37° C. overnight
Experimental: The pre-cultures are then inoculated at 1/40th in 5 ml of LB+50 μg/ml Kanamycin medium and when the OD600 reaches a value of 0.6 (about 2 hours), the production of protein is induced by the addition of final IPTG 1 mM and continues for 1.5 hours at 37° C. with stirring at 200 rpm.
The dishes were incubated at 37° C. overnight and the results were recorded the following day. The MICs correspond to the lowest concentration of antibiotic at which the highest inoculum doesn't grow.

E. coli BL21(DE3)pLysS [3] = assay: MICs of beta-lactams and macrolide on LB-agar for E. coli expression strains (Example 6); type: cell-based, Escherichia coli; settings: Table 14
Experimental: The pre-cultures are then inoculated at 1/40th in 5 ml of LB+50 μg/ml Kanamycin medium and when the OD600 nm reaches a value of 0.6 (about 2 hours), the production of protein is induced by the addition of 1 mM final IPTG and continued for 1.5 hours at 37° C. with stirring at 200 rpm.
The dishes are incubated at 37° C. over night and the results are recorded the next day. The MICs correspond to the lowest concentration of antibiotic at which the highest inoculum no longer grows.

[4] = pH-STAT beta-lactam hydrolysis assay, substrate ceftriaxone; type: biochemical; settings: pH=7.0; for Specific activity, substrate Ceftriaxone: 37° C.
Experimental: (§1) The purified proteins were tested on different beta-lactams (amoxicillin (Apollo Scientific), Augmentin® (GlaxoSmithKline) and Ceftriaxone (Rocéphine®, Roche)). The assays are carried out at pH-STAT (Titrino 2.5, Metrohm) in a reaction volume of 25 ml at 37° C. and pH=7.0. The substrates are prepared at 4 g/l in a 0.3 mM Tris buffer, 150 mM NaCl. The enzyme hydrolysis of the beta-lactam nuclei releases an acid and induces a drop in the pH. The principle of the assay is to compensate for the acidification by the addition of 0.1 N sodium hydroxide so as to remain at pH=7.0. In these conditions, one unit corresponds to 1 μmole of sodium hydroxide added per minute, that is, one μmole of beta-lactam hydrolysed per minute. Table 3 below lists the specific activities measured for each protein on the three substrates (mean of 6 replicates).
The purified proteins were tested on different antibiotics: Ceftriaxone (RocéphineED, Roche) for the beta-lactams and kanamycin for the Aminoglycosides. The assays on ceftriaxone were carried out at pH-STAT (Titrino 2.5, Metrohm) in a reaction volume of 25 ml at 37° C. and pH=7.0. The substrates are prepared at 4 g/l in a 0.3 mM Tris buffer, 150 mM NaCl. The enzyme hydrolysis of the beta-lactam nuclei releases an acid and results in a drop in the pH. The principle of the assay is to compensate this acidification by the addition of 0.1 N sodium hydroxide so as to remain at pH=7.0. In these conditions, one unit corresponds to 1 μmol of sodium hydroxide added per minute, that is one μmol of beta-lactam hydrolyzed per minute.

[5] = pH-STAT beta-lactam hydrolysis assay, substrate Augmentin; type: biochemical; settings: 37° C., pH=7.0
Experimental: as §1

[6] = pH-STAT beta-lactam hydrolysis assay, substrate amoxicillin; type: biochemical; settings: 37° C., pH=7.0
Experimental: as §1

[7] = Acetyl-transferase indirect colorimetric assay (acetyl-CoA, DTNB); type: biochemical; settings: Table 12; 500 μM Kanamycin, 500 μM AcetylCoA, 250 μM DTNB; 1 unit = one nanomole of TNB released per minute at 37° C.; n=6
Experimental: The activity of acety-transferase is measured by an indirect colorimetric assay with acetyl-CoA (Sigma-Aldrich) as acetyl group donor, Kanamycin as acceptor and Elleman reagent (DTNB, Sigma-Aldrich) to titrate the CoEnzymeA reduced (—SH) molecules released during the enzyme reaction [Ref]. The reaction takes place on a microtitration plate with increasing quantities of purified enzymes, in a final volume of 200 μl and with concentrations of 500 μM Kanamycin, 500 μM AcetylCoA and 250 μM DTNB. In these experimental conditions, the ion TNB^2 absorbs at 412 nm with an ε(λ=412 nm) apparent 19 000 M^−1.well^−1 (well of a 96 well plate filled with 200 μl) and 1 unit corresponds to one nanomole of TNB^2 released per minute at 37° C.

[8] = Table 3, proteins produced in Pichia pastoris, substrate 4 g/l, mean of 6 replicates
[9] = Table 5 (Example 2), proteins produced in Pichia pastoris
[10] = Table 7 (Example 3), proteins produced in Pichia pastoris
[11] = Table 9, proteins produced in Escherichia coli BL21(DE3) pLysS
[12] = Table 3, proteins produced in Pichia pastoris, substrate 4 g/l, 1 U = 1 μmole beta-lactam hydrolysed per minute, mean of 6 replicates
[13] = Table 9, proteins produced in Escherichia coli BL21(DE3) pLysS (periplasm, non-glycosylated)
[14] = BL21(DE3)pLysS + protein, IPTG induced, LB-agar, 37° C. over night

Row | Molecule | Specific activity, substrate Ceftriaxone [4, 8] [U/mg] | Specific activity, substrate Ceftriaxone [4, 9] [U/mg] | Specific activity, substrate Ceftriaxone [4, 10] [U/mg] | Specific activity, substrate Ceftriaxone [4, 11] [U/mg] | Specific activity, substrate Augmentin [5, 8] [U/mg] | Specific activity, substrate Augmentin [5, 9] [U/mg] | Specific activity, substrate Augmentin [5, 10] [U/mg] | Specific activity, substrate Augmentin [5, 11] [U/mg] | Specific activity, substrate Amoxicillin [6, 12] [U/mg] | Specific activity, substrate Amoxicillin [6, 9] [U/mg] | Specific activity, substrate Amoxicillin [6, 10] [U/mg] | Specific activity, substrate Amoxicillin [6, 13] [U/mg] | also measured
1 | CC[C@H]1OC(=O)[C@H](C)[C@@H](O[C@H]2C[C@@](C)(OC)[C@@H](O)[C@H](C)O2)[C@H](C)[C@@H](O[C@@H]2O[C@H](C)C[C@H](N(C)C)[C@H]2O)[C@](C)(O)C[C@@H](C)CN(C)[C@H](C)[C@@H](O)[C@]1(C)O [azithromycin] | – | – | – | – | – | – | – | – | – | – | – | – | Patients with acute diarrhoea induced by antibiotics ([1]; human, in vivo): 2-5%
2 | CC1(C)S[C@@H]2[C@H](NC(=O)[C@H](N)c3ccc(O)cc3)C(=O)N2[C@H]1C(=O)O [Amoxicillin, amoxicillin, reference compound] | – | – | – | – | – | – | – | – | – | – | – | – | MIC of the antibiotic for the empty strain BL21(DE3)pLysS (E. coli BL21(DE3)pLysS [2]): <0.5 μg/ml; MIC of the antibiotic for the empty strain BL21(DE3)pLysS (E. coli BL21(DE3)pLysS [3]; empty strain, no recombinant protein): <2 μg/ml; Patients with acute diarrhoea induced by antibiotics ([1]; patients receiving antibiotic therapy): 5-10%
3 | CO/N=C(\C(=O)N[C@@H]1C(=O)N2C(C(=O)O)=C(CSc3nc(=O)c(O)nn3C)CS[C@H]12)c1csc(N)n1 [Rocephine, Ceftriaxone, reference compound] | – | – | – | – | – | – | – | – | – | – | – | – | MIC of the antibiotic for the empty strain BL21(DE3)pLysS (E. coli BL21(DE3)pLysS [2]): <0.5 μg/ml
4 | B1 | 114 ± 44 | 123 ± 35 | 141 ± 55 | 138 ± 32 | 42 ± 33 | 42 ± 14 | 34 ± 6 | 24 ± 5 | 695 ± 98 | 890 ± 83 | 890 ± 176 | 633 ± 99 | –
5 | B2 | – | – | – | – | – | – | – | – | – | – | – | – | MIC of Amoxicillin for E. coli strain expressing the protein (E. coli BL21(DE3)pLysS [3]; [14]): <2 µg/mL; MIC of Augmentin for E. coli strain expressing the protein (E. coli BL21(DE3)pLysS [3]; [14]): <2 µg/mL; MIC of Erythromycin for E. coli strain expressing the protein (E. coli BL21(DE3)pLysS [3]; [14]): >1024 µg/mL
6 | B3 | 0 | 0 | 0 | 1 ± 1 | 97 ± 74 | 97 ± 74 | 97 ± 74 | 385 ± 31 | 816 ± 90 | 816 ± 90 | 816 ± 90 | 3593 ± 87 | MIC of Amoxicillin for E. coli strain expressing the protein (E. coli BL21(DE3)pLysS [2]): >1024 µg/mL; MIC of Augmentin for E. coli strain expressing the protein (E. coli BL21(DE3)pLysS [2]): 512 µg/mL; MIC of Rocephine for E. coli strain expressing the protein (E. coli BL21(DE3)pLysS [2]): <0.5 µg/mL; MIC of Amoxicillin for E. coli strain expressing the protein (E. coli BL21(DE3)pLysS [3]; [14]): >2048 µg/mL; MIC of Augmentin for E. coli strain expressing the protein (E. coli BL21(DE3)pLysS [3]; [14]): 512 µg/mL
7 | B4 | 306 ± 44 | 306 ± 44 | 306 ± 44 | 158 ± 14 | 0 | 0 | 0 | 0 | 31 ± 2 | 31 ± 2 | 31 ± 2 | 21 ± 1 | MIC of Amoxicillin for E. coli strain expressing the protein (E. coli BL21(DE3)pLysS [2]): >1024 µg/mL; MIC of Augmentin for E. coli strain expressing the protein (E. coli BL21(DE3)pLysS [2]): 4 µg/mL; MIC of Rocephine for E. coli strain expressing the protein (E. coli BL21(DE3)pLysS [2]): 512 µg/mL; Specific activity, substrate Kanamycin [7]: 0 U/mg; Specific activity, substrate Cetriaxone ([4]; Table 12, pH-STAT 37° C., AAC and fusion from E. coli, CTX-M16 from P. pastoris, n=6): 336 ± 5 U/mg
